Data: patent US20180044415A1 (AbbVie / Abbott, published 2018)
Substitutions are numbered along the chain they refer to.

T1: human DLL3 (immobilized human DLL3 or h293-hDLL3 cells) (human, UniProt Q9NYJ7 27-492, limits assumed)
T1 construct: the sentence says 'immobilized human DLL3 or h293-hDLL3 cells'
T1 sequence: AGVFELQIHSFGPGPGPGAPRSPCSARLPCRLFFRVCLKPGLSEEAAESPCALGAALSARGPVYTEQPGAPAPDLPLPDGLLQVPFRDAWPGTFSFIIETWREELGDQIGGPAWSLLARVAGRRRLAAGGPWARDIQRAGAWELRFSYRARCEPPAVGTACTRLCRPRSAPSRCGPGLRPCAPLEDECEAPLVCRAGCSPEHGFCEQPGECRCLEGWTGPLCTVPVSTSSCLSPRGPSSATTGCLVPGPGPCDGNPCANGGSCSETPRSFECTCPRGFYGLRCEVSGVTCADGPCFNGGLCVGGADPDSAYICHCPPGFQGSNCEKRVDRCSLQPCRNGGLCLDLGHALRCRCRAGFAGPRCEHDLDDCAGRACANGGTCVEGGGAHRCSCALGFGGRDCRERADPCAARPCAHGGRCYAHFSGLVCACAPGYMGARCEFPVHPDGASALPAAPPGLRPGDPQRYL

B1: SC16.117 (antibody, V domains shown)
VH: QVQLKESGPGLVAPSQSLSITCTVSGFSLTNYGVHWVRQPPGKGLEWLGVIWAGGITNYNSALMSRLSISEDNSKSQVFLKMNSLQTDDTAMYYCARNLGPYAMDYWGQGTSVTVSS
VL: DIQMNQSPSSLSASLGDTITITCHVSQNINVWLSWYQQKPGNIPKLLIQKASNLHTGVPSRFSGSGSGTGFTLTISSLQPEDIATYYCQQGQSYPFTFGSGTKLEIK
notes: murine mAb; variable regions only
B2: SC16.131 (antibody, V domains shown)
VH: B1 VH
VL: B1 VL
notes: as for B1
B3: SC16.130 (antibody, V domains shown)
VH: EVQLQQSGPELVKPGASVKMSCKASGYTFTSYVMHWVKQKPGQGLEWIGYINPYNDGTEYNEKFKGKATLTSDKSSSTAYMELSSLTSEDSAVYYCARGVYDGYSYFDYWGQGTTLTVSS
VL: DIQLTQSPASLSASVGETVTITCRASGSIHNYLAWYQQKQGKSPQLLVYNAKTLVDGVPSRFSGSGSGTQYSLKINSLQPEDFGYYYCQHFWTTPWTFGGGTKLEIK
notes: as for B1
B4: SC16.136 (antibody, V domains shown)
VH: EVQLQQSGPELVKPGASVKMSCKASGYTFTSYVMHWVKQKPGQGLEWIGYINPYNDGTKYNEKFKGKATLTSDKSSSTAYMELSSLTSEDSAVYYCARDRSGYEDYYGMDYWGQGTSVTVSS
VL: B3 VL with L4M, S28N, Q45H, V55A, Y85S, T93S
notes: as for B1
B5: SC16.137 (antibody, V domains shown)
VH: EVQLVESGGDLVKPGGSLKLSCAASGFTFSSYGMSWVRQTPDKRLEWVATISSGGSYTYYPDSVKGRFTISRDNAKNTLYLQMSSLKSEDTAMYYCARRRADAMDYWGQGTSVTVSS
VL: QIVLTQSPAIMSASLGEEITLTCSASSSVSYMHWYQQKSGTSPKLLIYSTSNLASGVPSRFSGSGSGTFYSLTISSVEAEDAADYYCHQWSSYHTFGGGTKLEIKR
notes: as for B1
B6: SC16.135 (antibody, V domains shown)
VH: QVQLQQSGAELVRPGTSVKVSCKASGYAFTNYLIEWVKQRPGQGLEWIGVINPGSGGTNSNEKFKAKATLTADKSSSTAYMQLSSLTSADSAVYFCARSDYDYAFYAMDYWGQGTSVTVSS
VL: DIKMTQSPSSMYASLGERVTITCKASQDINRYLSWFQQKPGKSPKTLIYRANRLVDGVPSRFSGSGSGQDYSLTISSLEYEDMGIYYCLQYDEFPFTFGSGTKLEIK
notes: as for B1
B7: SC16.110 (antibody, V domains shown)
VH: EVQLQQSGPGLVRTGASVKISCKASGYSFTGYYMHWVKQSHGKSLEWIGYISCYNGATTYNQNFKGKATFIVDTSSSTAYMQFNSLTSEDSAVYYCARSDGGHAMDYWGQGTSVTVSS
VL: NIVMTQTPKFLLVSAGDRVTITCKASQSVSNDVAWYQQKPGQSPKLLIYYASNRYTGVPDRFTGSGYGTDFTFTISTVQAEDLAVYFCQQDYSSPPTFGGGTKLEIK
notes: as for B1
B8: SC16.133 (antibody, V domains shown)
VH: QVQLKESGPGLVAPSQSLSITCTVSGFSLTNYAVHWVRQSPGKGLEWLGVIWSDGSTDYNAAFISRLSISKDNSKSQVFFKMNSLQADDTAMYYCARKKGGWFPWFAYWGQGTLVTVSA
VL: B7 VL with N1S, Y50C, P96L, G100A, I106L
notes: as for B1
B9: SC16.124 (antibody, V domains shown)
VH: EVQLQQSGPELVKPGASVKMSCKASGYTFTSYVMHWVKQKPGQGLEWIGYINPYNDGTKYNEKFKGKATLTSDKSSSTAYMELSSLTSEDSAVYYCARGALYYGNYLGYFDVWGAGTTVTVSS
VL: DIQMTQSPASQSASLGESVTITCLASQTIGTWLAWYQQKPGKSPQLLISAATSLADGVPSRFSGSGSGTKFSFKISSLQAEDFVSYYCQQLYSTPWTFGGGTKLEIK
notes: as for B1
B10: SC16.132 (antibody, V domains shown)
VH: QVQLKESGPGLVAPSQSLSITCTVSGFSLTDYGVSWIRQPPGKGLEWLGVVWGGGSTYYNSALKSRLSITKDNSKSQVFLKMNSLQTDDTAMYYCAKQRGQYGAYWGQGTLVTVSA
VL: B9 VL with S49Y
notes: as for B1
B11: SC16.138 (antibody, V domains shown)
VH: B10 VH with T70S
VL: B9 VL with S49Y, A50S
notes: as for B1
B12: SC16.129 (antibody, V domains shown)
VH: B10 VH with V51I, T70S, K81E, M82L, M92I, Q98H, R99Y, Q101H, G103A
VL: B9 VL with S49Y, W96Y
notes: as for B1
B13: SC16.122 (antibody, V domains shown)
VH: EVQLVESGGGLVKPGGSLKLSCAASGFTFSDYYMFWVRQTPEKRLEWVATISDGGSYTYFPDSVKGRFTISRDNAQNNLYLQMSSLKSEDTAMYYCARAGTLYAMDYWGQGTSVTVSS
VL: DIVMTQSQKFMSTSVGDRVSVTCKASQNVGTNVAWYQQKPGQSPKVLIYSASYRYSGVPDRFTGSGSGTDFTLTISNVQSEDLAEFFCQQYNSYPLTFGGGTKLEIK
notes: as for B1
B14: SC16.116 (antibody, V domains shown)
VH: QVQLKQSGPGRVQPSQSLSITCTVSGFSLTSNGVHWVRQSPGKGLEWLGVLWSGGSTDYNAAFISRLSISKDNYKSQVFFKMNSLQANDTAIYYCARNNNRYGAMDYWGQGTSVTVSS
VL: DIVMTQSPSSLTVTAGEKVTMSCTSSQSLLTSGNQKNYLTWYQQKPGQPPKLLIYWASTRESGVPDRFTGSGSGTDFTLTISSLQAEDLAVYYCQNDYSLTFGAGTKLELK
notes: as for B1
B15: SC16.114 (antibody, V domains shown)
VH: EVQLQQSGAELVKPGASVKLSCTASGFNIKDTYIHWVKQRPEQGLEWIGRIDPANGNTKYDPKFQGKATITPDTSSNTAYLQLSSLTSEDTAVYYCARSWRNYGSSFWYFDVWGAGTTVTVSS
VL: QIVLSQSPAILSASPGEKVTMTCRASSSVSYMHWYQQKPGSSPKPWIYATSNLASGVPARFSGSGSGTSYSLTISRVEAEDAATYYCQQWSSNPYTFGGGTKLEIK
notes: as for B1
B16: SC16.111 (antibody, V domains shown)
VH: EVQLQQSGPELEKPGASVKISCKASGYSFTGYNMNWVKQSNGKSLEWIGNIDPYYGGSSYKQKFEGKATLTVDKSSSTAYMQLKSLTSEDSAVYYCARGGSNFFDYWGQGTTLTVSS
VL: DIQMTQSPASLAASVGETVTITCRASENIYYSLAWYQQKQGKSPQLLIYNANSLEDGVPSRFSGSGSGTQYSMKINSMQPEDTATYFCKQTYDVPLTFGAGTKLELK
notes: as for B1
B17: SC16.121 (antibody, V domains shown)
VH: EVQLVESGGGLVQPKGSLKLSCAASGFTFNTYAMNWVRQAPGKGLEWVARIRIKSNNYATYYADSVKDRFTISRDDSQNMLYLQMNNLKTEDTAVYYCVRQGYSYDWGPWFAYWGQGTLVTVSA
VL: QIVLTQSPAIMSASPGEKVTITCSASSSVSYMHWFQQKPGTSPKLWIYSTSNLASGVPARFSGSGSGTSYSLTISRMEAEDAATYYCQQRSSYPPTFGGGTKLEIK
notes: as for B1
B18: SC16.140 (antibody, V domains shown)
VH: QVQLQQSGPELVRPGASVKMSCKASGYTFTSYWMHWVKQRPGQGLEWIGMIDPSNSETRLNQKFKDKATLNVDKSSNTAYMQLSSLTSEDSAVYYCAVMDYYFDYWGQGTTLTVSS
VL: DIVLTQSLASLAVSLGQRATISCRASKSVSTSGYSYMHWYQQKPGQPPKLLIYLASNLESGVPARFSGSGSGTDFTLNIHPVEDEDAATYYCQHSRELPFTFGGGTKLEIK
notes: as for B1
B19: SC16.113 (antibody, V domains shown)
VH: DVKLVESGGGLVKPGGSLKLSCAASGFTFSSYTMSWVRQTPEKRLEWVATISSGGSYPYYPDSVKGRFTISRDNAKNTLYLQMSSLKSEDTAMYYCTRDVYDGYSYWGQGTTLTVSS
VL: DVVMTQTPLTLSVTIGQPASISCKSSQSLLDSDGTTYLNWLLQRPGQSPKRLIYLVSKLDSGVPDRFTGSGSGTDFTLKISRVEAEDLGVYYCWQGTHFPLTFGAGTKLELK
notes: as for B1
B20: SC16.115 (antibody, V domains shown)
VH: B19 VH
VL: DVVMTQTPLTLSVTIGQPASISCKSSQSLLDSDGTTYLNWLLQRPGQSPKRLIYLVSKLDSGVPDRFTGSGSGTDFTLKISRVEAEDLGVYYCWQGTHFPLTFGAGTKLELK
notes: as for B1
B21: SC16.123 (antibody, V domains shown)
VH: QVALKESGPGILQPSQTLSLTCSFSGFSLSTSGMGVGWIRQPSGKGLEWLAHIWWDDVKRYNPALKSRLTISKDTSSSQVFLKIASVDTADTATYYCARMEDYGSSSYFDFWGHGTTLTVSS
VL: QIVLTQSPAIMSASLGERVTMTCTASSSVSSSYLHWYQQKPGSSPKLWIYSTSNLASGVPARFSGSGSGTSYSLTISSMETEDAATYYCHQYHRSPFTFGSGTKLEIK
notes: as for B1
B22: SC16.118 (antibody, V domains shown)
VH: EVQLQQSGPDLVKPGASVKISCKASGYSFTGYYMHWVKQSHGKSLEWIGRVNPNNGGTSYNQKFKGKAILTADKSSSTAYMELRSLTSEDSAVYYCARGSYDYAEGWGQGTLVTVSA
VL: DIVLTQSPASLAVSLGQRATISCKASQSVDYDGDSYLTWYQQKPGQPPKLLIYAASNLESGIPARFSGSGSGTDFTLNIHPVEEEDAATYYCQQSNEDPYTFGGGTKLEIK
notes: as for B1
B23: SC16.134 (antibody, V domains shown)
VH: B22 VH with S44R, S59N, A72V, Y103N
VL: B22 VL with Y31H, D32A, L37M, T38N
notes: as for B1

What follows are binders tested against T1, human DLL3 (immobilized human DLL3 or …) (assay: hybridoma screening on immobilized human DLL3 or on h293-hDLL3 cells).

Binding result, binds:
B1
B2
B3
B4
B5
B6
B7
B8
B9
B10
B11
B12
B13
B14
B15
B16
B17
B18
B19
B20
B21
B22
B23
